Experimental findings from patent publication US20030049702 are described below.

Data set [1] has as its target T1, in vitro translated FADD (from pcDNA3-Flag-FADD), Q13158.
T1 chain: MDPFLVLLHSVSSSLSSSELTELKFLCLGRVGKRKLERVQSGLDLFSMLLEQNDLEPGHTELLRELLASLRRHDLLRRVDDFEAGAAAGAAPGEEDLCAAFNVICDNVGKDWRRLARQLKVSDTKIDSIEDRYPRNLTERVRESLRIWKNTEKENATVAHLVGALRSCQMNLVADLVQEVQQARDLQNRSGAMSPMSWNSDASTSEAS

B1: in vitro translated pro-Casp8 (from pcDNA3Flag-pro-Casp8) (protein)
chain: MDFSRNLYDIGEQLDSEDLASLKFLSLDYIPQRKQEPIKDALMLFQRLQEKRMLEESNLSFLKELLFRINRLDLLITYLNTRKEEMERELQTPGRAQISAYRVMLYQISEEVSRSELRSFKFLLQEEISKCKLDDDMNLLDIFIEMEKRVILGEGKLDILKRVCAQINKSLLKIINDYEEFSKERSSSLEGSPDEFSNGEELCGVMTISDSPREQDSESQTLDKVYQMKSKPRGYCLIINNHNFAKAREKVPKLHSIRDRNGTHLDAGALTTTFEELHFEIKPHDDCTVEQIYEILKIYQLMDHSNMDCFICCILSHGDKGIIYGTDGQEAPIYELTSQFTGLKCPSLAGKPKVFFIQACQGDNYQKGIPVETDSEEQPYLEMDLSSPQTRYIPDEADFLLGMATVNNCVSYRNPAEGTWYIQSLCQSLRERCPRGDDILTILTEVNYEVSNKDDKKNMGKQMPQPTFTLRKKLVFPSD
Regarding B1, in the data set with DAP3-His6, the “caspase-8 activity (cleavage of Ac-IETD-AFC) in vitro” value is “increased protease activity by ˜5-fold”; the “caspase-8 activity (cleavage of Ac-IETD-AFC) in vitro, DAP3 and FADD added together” value is reported as “˜10-fold increase in caspase-8 activity”. The “caspase-8 activity (cleavage of Ac-IETD-AFC) in vitro” value in data set [1] was “˜3-fold increase in caspase-8 activity”.
